# Assay results as given in the RNAGym collection of RNA variant scans (doi:10.7554/elife.90254).
# B1: LINE1-mini (parent)
# chain: GGCAGAGCUCAACACAGCGUGGCAAAGUGGCUGUGGCUAGACUGCC
# Variants of: B1
# Experiment: self-cleavage, relative activity (ratio to wild type); higher = more cleavage; in vitro, sequencing; the parent is a self-cleaving ribozyme
row,Variant,self-cleavage
1,C3U C23U,0.38
2,A14C G35U,0.07
3,G19A G21A,2.83
4,C3G G44U,1.21
5,G33A U34A,0.09
6,A4G A6U,0.27
7,A11C G36A,0.04
8,C42U U43C,0.11
9,U20C A39C,0.2
10,G1U A11U,0.07
11,G7A C46U,0.32
12,C15U G17C,0.19
13,A24C U43G,0.37
14,C8G G44U,0.04
15,C37U A39G,0.02
16,C3A G36U,0.38
17,A14U G17C,0.22
18,G1A C10U,0.35
19,C13U A39U,0.08
20,U20C G29U,0.4
21,A39U U43G,0.02
22,A16C A41C,0.03
23,A4C C23A,0.25
24,G17C C42A,0.05

row,Variant,self-cleavage
1,G27C U32A,0.09
2,G1U A25C,0.21
3,U20C G29A,0.55
4,A4G C46U,0.39
5,C18A G21C,0.96
6,C31A U32C,0.07
7,A11C A25G,0.08
8,G19A U20C,0.46
9,C10G C15G,0.03
10,C3A A12G,0.12
11,A12U U38G,0.02
12,G19A A39G,0.1
13,A6C U28G,0.2
14,G5U U28G,0.09
15,A25U A26U,1.23
16,U9G C31G,0.04
17,U9A G27A,0.1
18,A11U U34G,0.02
19,G1C A39G,0.01
20,G1A A24G,2.89
21,C13G G36C,0.08
22,G2C A25G,0.06
23,A41C C42U,0.05
24,G21U G30A,1.81

row,Variant,self-cleavage
1,G5U C18A,0.07
2,G1U C3G,0.25
3,G1A A4U,0.27
4,A4U G40U,0.14
5,G27U G36A,0.4
6,A16G G19C,0.5
7,U9C G19A,0.04
8,A14C C18G,0.05
9,A4U A16U,0.15
10,U38A C46G,0.38
11,C31A U43A,0.08
12,G1U C42G,0.04
13,A24C A25C,0.73
14,U28C,0.73
15,C10U C18U,0.34
16,C31A U34C,0.06
17,A14C C42U,0.07
18,A6C C10G,0.05
19,A11C G36C,0.03
20,C18U U32A,0.04
21,U20A G40A,0.1
22,U32G G33A,0.08
23,U9G C45A,0.11
24,C15A U43G,0.07

row,Variant,self-cleavage
1,G33A A41G,0.11
2,A16G C42U,0.09
3,C23A C37U,0.03
4,U34C G40A,0.11
5,C3G C18G,0.15
6,G2U A11C,0.01
7,A4U C42A,0.11
8,C10A G17A,0.04
9,U20A G35U,0.08
10,U9C A14C,0.02
11,A16G A25G,0.04
12,A24G U34C,0.1
13,G22C C46U,0.65
14,C8U A16G,0.16
15,A39U G40A,0.17
16,G21C G33A,0.8
17,G1A C31U,0.32
18,G5C C46U,0.06
19,C3G C15U,0.25
20,G17C U28A,1.16
21,A24G C45A,1.47
22,G7A G17A,0.16
23,G5U C15A,0.05
24,A11G G22A,0.03

row,Variant,self-cleavage
1,C23G G40A,0.07
2,U9A G36A,0.34
3,G5C U34A,0.06
4,C18G G19A,0.31
5,G22C U43C,0.06
6,A6G U38C,0.07
7,C18G A24G,0.44
8,A6C A41C,0.04
9,A25C G29C,0.56
10,G19A G33C,0.05
11,G7C G19A,0.14
12,A39U,0.8
13,C8U A12C,0.04
14,A26U G27U,1.41
15,G1A U32A,0.09
16,C23G G30U,0.75
17,G2U C3U,0.37
18,G5C C15G,0.03
19,A4U A14G,0.15
20,G27A U34G,0.32
21,G27U U28G,1.08
22,A12C G17A,0.01
23,U9C C10G,0.03
24,G17C C45U,0.84

row,Variant,self-cleavage
1,G17U C23U,0.18
2,A12U G21C,0.21
3,A24G U28A,0.94
4,G7U G19C,0.05
5,G36U C37U,0.03
6,A24U U34A,0.08
7,A4U C42U,0.14
8,C23U G33A,0.15
9,A6U G19C,0.45
10,A24C U38G,0.01
11,C23A G44A,0.61
12,G19A U43G,0.06
13,C13G G35A,0.07
14,A4G C45U,0.6
15,G5A U9G,0.27
16,A6C C15G,0.04
17,G5A C10A,0.04
18,C8A G22C,0.17
19,G33C C42G,0.05
20,G1C G44U,0.06
21,G7C G21C,0.08
22,G36C C46G,0.08
23,C8A G29C,0.14
24,G22U A24C,0.92

row,Variant,self-cleavage
1,C13A U32G,0.08
2,C18U A26G,0.65
3,C13A A24C,0.18
4,A6C C8A,0.26
5,C23U U32A,0.2
6,G2U C18G,0.03
7,A11U U32A,0.03
8,C31G U38G,0.03
9,G30A C31U,0.14
10,A11G A14G,0.02
11,A6C C18A,0.2
12,A4C A39G,0.9
13,C18A C31G,0.04
14,C18A U43G,0.26
15,G22A A41C,0.09
16,G1A C42U,0.16
17,G2A G29A,0.61
18,C15A C37A,0.08
19,C13A A14U,0.12
20,G1C U43A,0.02
21,G17U G35U,0.07
22,C13G A41G,0.09
23,C18U U38A,0.75
